According to US10464976B2, “Amyloid β(1-42) oligomers, derivatives thereof and antibodies thereto, methods of preparation thereof and use thereof” (AbbVie Deutschland GmbH & Co. KG, priority 2003, dated 2019):
Like-named read-outs stand apart in the source and are kept apart here. Where no end group is shown, it is not given here.

Key:
[1] = rat, in vivo; for Aβ(1-42) detected in brain extract: 10 nmol
[2] = Stability of Aβ(1-42) oligomers B in physiological buffers (SDS PAGE); format: physicochemical
Description: The Aβ(1-42) oligomers B obtained according to example 6b are tested for stability in PBS buffer under the following conditions.
5 mg/ml are diluted with PBS in 2× dilution steps down to 0.08 mg/ml. All solutions obtained are incubated at room temperature for 24 hours. This was followed by analyzing the band pattern in an SDS PAGE in comparison with a frozen control preparation.
The Aβ(1-42) oligomers B obtained according to example 6b are diluted to 0.5 mg/ml with PBS buffer and incubated at room temperature or at 37° C. for 24 h or 96 h.
Subsequently, the band pattern was analyzed in an SDS PAGE.

[3] = tested on: murine cortical neurons; assay: Neurotoxic action on murine cortical neurons (LDH release); format: cell-based; details: 24 h, various final concentrations, n=12
Description: Murine cortical neurons are prepared and cultured as a mixed culture with glia cells following the literature (Choi et al. (1987) J. Neurosci. 7, 357-368). The cortices of embryos on days 14-15 of development are mechanically removed from the meninges and lower brain regions. The cells are separated from one another by incubation in a 0.05% strength trypsin solution at 37° C. for 5-7 minutes and subsequently pipetting said solution several times through a pasteur pipette with reduced opening. After determining the number of cells, 430 000 cells are seeded in 0.5 ml of maintenance medium (minimum essential medium containing 0.8 mM glutamine, 18 mM glucose, 23 mM NaHCO3 and 10% of horse serum) per 2 cm^2 on cell culture material coated with poly-L-ornithine and laminine. Cultivation and later incubations of the cells are carried out in a humidified cell culture incubator at 37° C., 5% CO2. […] The cell culture supernatants are removed after 24 h, the remaining cells are destroyed by incubation in distilled water for 20 minutes and the activity of the enzyme lactate dehydrogenase (LDH) is determined enzymatically in both solutions. For evaluation, the ratio of the LDH activity of the cell culture supernatants to the sum of the LDH activities of supernatant and remaining cells is determined and the average of the quadruple determinations is formed. […]

[4] = rat
[5] = Detection of Aβ(1-42) oligomers B in rat brain homogenates after icv administration; details: Western blot, after 2 hours
[6] = tested on: rat primary hippocampal neurons; assay: Binding to rat primary hippocampal neurons (immunofluorescence); format: cell-based; details: 200 nM, 37° C., 15 minutes, detection with 6E10 and Cy3 second antibody
Description: The binding of rat Aβ(1-42) oligomers B of example 5b to rat primary hippocampal neurons was studied. The hippocampal neurons were cultured in neurobasal medium with B27 supplement on poly-L-lysine-coated cover slips and used on day 14 of the culture. The oligomers were bound to the cell membrane of the neurons by adding 200 nM (total monomeric Aβ concentration) oligomers to fresh culture medium and incubating at 37° C. for 15 minutes. After removing the Aβ-containing medium, two washing steps with medium were carried out and the cells were then fixed in 3.7% formaldehyde. After further washing of the cells, unspecific binding sites were blocked with 10% normal donkey serum in PBS buffer at room temperature for 90 min. 6E10 (from mouse) was applied as the first antibody in a 1:2000 dilution at room temperature for 2 h. The cells were washed again and incubated with the second antibody (from donkey) which is directed against mouse and which is coupled to the fluorescent dye Cy3, at room temperature for 2 h. After the cells had been washed again, the cover slips containing the neurons were fixed to a slide with embedding medium. The hippocampal neurons with bound Aβ oligomers were depicted in a fluorescent microscope. The control used was a mixture in which the first antibody 6E10 had been omitted.

Substance | average biological half life (brain) [1] | Aβ(1-42) detected in brain extract ([1]; 0.25 h) | Aβ(1-42) detected in brain extract ([1]; 2 h) | band pattern in SDS PAGE ([2]; 0.5 mg/ml in PBS, room temperature or 37° C., 24 h or 96 h) | band pattern in SDS PAGE versus frozen control ([2]; PBS, 5 mg/ml down to 0.08 mg/ml, room temperature, 24 hours) | neurotoxicity (neuronal death, LDH) [3] | biological half life in the plasma [4] | oligomeric structure after in vivo administration (38/48 kDa bands) [5] | binding to the cell surface of the neurons [6]
Aβ(1-42) oligomers B: oligomers of human amyloid β(1-42) protein with molecular weights of 38 kDa and 48 kDa in SDS PAGE (examples 5a, 6b) | about 105 min | about 0.4 nmol/g | approx. 0.2 nmol/g | identical in all samples | identical in all samples | distinct toxic action | ≥ 8 hours | oligomeric structure is still retained | 
rat Aβ(1-42) oligomers B: oligomers of rat amyloid β(1-42) protein with molecular weights of 38 kDa and 48 kDa (example 5b) (DAEFGHDSGFEVRHQKLVFFAEDVGSNKGAIIGLMVGGVVIA; also: oligomers of 38 kDa and 48 kDa) |  |  |  |  |  |  |  |  | bind to the cell surface of the neurons in a dotted manner
